# From PMC3325211, “Mutations in MITF and PAX3 Cause “Splashed White” and Other White Spotting Phenotypes in Horses”
# B1: M-box oligonucleotide (dsDNA)
# DNA 1: GGAAAGTTAGTCATGTGCTTTTCAGAAGA
# DNA 2: TCTTCTGAAAAGCACATGACTAACTTTCC
# Biological target: MITF N310S (DNA-binding fragment) (UniProt Q95MD1 112-207, N149S)
# Experiment: EMSA; 5 mM MgCl2; 2.0 uM protein end point; reduced by about 80%; 20 mM Tris, 50 mM NaCl, 5 mM MgCl2, 1 mM DTT, 33 ug/ml BSA, pH 7.4, on ice 30 min; 6% native PAGE in 0.5x TBE
# Conditions: protein: recombinant; (Ni-NTA purified); chain copies: 2; label: radioactive label
# MITF N310S (DNA-binding fragment), sequence (Q95MD1 entry or part of it N149S | N310S N310S): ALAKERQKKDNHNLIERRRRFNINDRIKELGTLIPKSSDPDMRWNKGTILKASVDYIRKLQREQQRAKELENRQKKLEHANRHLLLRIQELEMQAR
binder,measurement,value
B1,binding signal,~20 % of wild-type binding
